This passage reports K half results from article PMC2694808.

For the data set, the system named is Hfq. The data set can be described thus: EMSA. The note with it: 40 or 100 mM NH4Cl, 10 mM Tris-HCl pH 7.5, 5 mM Mg acetate, 0.1 mM DTT, 37°C (EMSA 10 min; SPR Biacore 2000).

Values joined by “and” are separate entries in the source; they are usually repeats but may differ in a detail not shown here. Equal values may be shown once.

On to invE RNA probe (140 nt), for which the K half is 1.7 nM and 6.2 nM.
